# Data: US20230058774A1
# How the values were obtained:
# [1] = target: FasDNR (Fas dominant negative receptor, deletion of amino acids 230-314 of human Fas) (human) (UniProt P25445); test: cell-based or functional assay
# [2] = target: human Fas, wild type (human) (UniProt P25445); test: cell-based or functional assay
substance,measurement,setting,value
soluble FasL oligomerized through a leucine zipper motif (FasL-LZ) (from UniProt P48023 103-281) (ligand),apoptosis (active Caspase3/7 and Annexin V) of primary human CD8+ T cells exposed to 100 ng/ml FasL-LZ,[1],< 20%
same,apoptosis (active Caspase3/7 and Annexin V) of primary human CD8+ T cells exposed to 100 ng/ml FasL-LZ,[2],70%
